Assay results from patent US20210002376A1 (UNIVERSIT T STUTTGART, published 2021).

Tests used:
[1] = target: T1, TNFR2-Fc (Enbrel) fusion protein (UniProt P20333 23-257); assay: ELISA, coated TNFR2-Fc (Enbrel), anti-human Fab-HRP
T1 construct: extracellular domain; Commercial product (Enbrel) used as coated antigen
T1 sequence (looked up): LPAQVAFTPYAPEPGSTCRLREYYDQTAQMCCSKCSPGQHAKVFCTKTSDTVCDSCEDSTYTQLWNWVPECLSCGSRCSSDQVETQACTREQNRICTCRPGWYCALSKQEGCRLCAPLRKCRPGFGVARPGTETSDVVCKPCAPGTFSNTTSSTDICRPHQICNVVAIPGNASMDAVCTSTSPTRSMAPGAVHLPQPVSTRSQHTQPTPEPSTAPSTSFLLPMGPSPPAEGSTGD

TNFR1-Fc fusion protein = target: T2, TNFR1-Fc fusion protein (UniProt P19438 29-197); assay: ELISA, coated TNFR1-Fc, anti-human Fab-HRP
T2 construct: range 29-197; Coated antigen in ELISA; not shown: Fc part of the fusion, not described
T2 sequence (looked up): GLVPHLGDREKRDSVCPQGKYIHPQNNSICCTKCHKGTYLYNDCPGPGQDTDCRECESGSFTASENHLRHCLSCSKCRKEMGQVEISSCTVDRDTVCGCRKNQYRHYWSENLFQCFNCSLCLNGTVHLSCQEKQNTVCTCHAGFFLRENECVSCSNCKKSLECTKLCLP

TNFR2 (on Kym-1 cells) = target: T3, TNFR2 (on Kym-1 cells) (UniProt P20333 23-461, limits assumed); assay: cell-based or functional assay
T3 sequence (looked up): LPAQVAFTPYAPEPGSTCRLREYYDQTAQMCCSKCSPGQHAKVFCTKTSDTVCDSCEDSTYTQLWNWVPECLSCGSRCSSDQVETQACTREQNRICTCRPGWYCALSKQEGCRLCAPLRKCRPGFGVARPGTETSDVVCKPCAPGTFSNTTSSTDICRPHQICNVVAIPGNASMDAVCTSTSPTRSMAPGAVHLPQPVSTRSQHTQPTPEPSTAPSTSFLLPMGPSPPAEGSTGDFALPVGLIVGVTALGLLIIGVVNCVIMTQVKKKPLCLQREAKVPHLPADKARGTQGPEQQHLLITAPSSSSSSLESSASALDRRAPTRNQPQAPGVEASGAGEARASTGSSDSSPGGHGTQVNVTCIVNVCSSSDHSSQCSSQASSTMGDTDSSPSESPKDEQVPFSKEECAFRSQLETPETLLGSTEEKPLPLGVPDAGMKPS

B1: DbTNFR2xTNFR2-Ig (antibody, human IgG1, kappa)
heavy: QVQLQQSGAEVKKPGSAVKVSCKASGGTFSSYAISWVRQAPGQGLEWMGRIIPILGIANYAQKFQGRVTITADKSTSTAYMELSSLRSEDTAVYYCARDGLGDAFDIWGQGTMVTVSSGGGGSQSALTQPRSVSGSPGQSITISCTGTSSDVGGYNYVSWYQQHPGKAPKLMIYDVSNRPSGVSNRFSGSKSGNTASLTISGLQAEDEADYYCSSYTSSSTLVVFGGGTKLTVLASTKGPSVFPLAPSSKSTSGGTAALGCLVKDYFPEPVTVSWNSGALTSGVHTFPAVLQSSGLYSLSSVVTVPSSSLGTQTYICNVNHKPSNTKVDKKVEPKSCDKTHTCPPCPAPPVAGPSVFLFPPKPKDTLMISRTPEVTCVVVDVSHEDPEVKFNWYVDGVEVHNAKTKPREEQYNSTYRVVSVLTVLHQDWLNGKEYKCKVSNKGLPSSIEKTISKAKGQPREPQVYTLPPSRDELTKNQVSLTCLVKGFYPSDIAVEWESNGQPENNYKTTPPVLDSDGSFFLYSKLTVDKSRWQQGNVFSCSVMHEALHNHYTQKSLSLSPGK
light: QVQLQQSGAEVKKPGSAVKVSCKASGGTFSSYAISWVRQAPGQGLEWMGRIIPILGIANYAQKFQGRVTITADKSTSTAYMELSSLRSEDTAVYYCARDGLGDAFDIWGQGTMVTVSSGGGGSQSALTQPRSVSGSPGQSITISCTGTSSDVGGYNYVSWYQQHPGKAPKLMIYDVSNRPSGVSNRFSGSKSGNTASLTISGLQAEDEADYYCSSYTSSSTLVVFGGGTKLTVLRTVAAPSVFIFPPSDEQLKSGTASVVCLLNNFYPREAKVQWKVDNALQSGNSQESVTEQDSKDSTYSLSSTLTLSKADYEKHKVYACEVTHQGLSSPVTKSFNRGEC
notes: variable domains originate from IgG15
Question: B1 was tested. Which EC50 [1] did it give?
Answer: The EC50 was 0.7 nM.

Question: Does B1 bind (TNFR1-Fc fusion protein)?
Answer: Result: no binding

Question: What about the “EC50 of cell death induction, Kym-1 cells, MTT assay after 24 hours” value (TNFR2 (on Kym-1 cells)) of the same binder?
Answer: Its value is about 0.056 nM.

Question: And the “fold increase of bioactivity against the bivalent antibody” value (TNFR2 (on Kym-1 cells))?
Answer: The value was about 500 fold.
